{"source": "paper PMC2904371", "origin": "cited, not measured here", "target": "Vinculin tail Vd5 (UniProt P18206)"}
{"substance": "Vinculin head Vd1-Vd4 (from UniProt P18206)", "values": [{"measurement": "Kd", "result": 1, "unit": "nM"}]}
